The record followed here is US5919790A, “Hydroxamate inhibitors of interleukin-1β converting enzyme” (Warner-Lambert Company, priority 1997, dated 1999).

By Km is commonly meant the substrate concentration at which the rate is half of its maximum.

Substrate in this data set: CC(=O)N[C@@H](Cc1ccc(O)cc1)C(=O)N[C@H](C(=O)N[C@@H](C)C(=O)N[C@@H](CC(=O)O)C(=O)Nc1ccc2c(C)cc(=O)oc2c1)C(C)C
As to the kind of experiment: ICE inhibition, Ki, fluorescence assay with Ac-Tyr-Val-Ala-Asp-AMC. The format is biochemical. To be noted: other: substrate of ICE, HGDE buffer. As to the method: Substrate hydrolysis is monitored for 300 seconds by observing the fluorescence of released AMC using excitation at 380 nm and emission at 460 nm. Mean rates of substrate hydrolysis are evaluated by linear-regression analysis of the fluorescence vs time traces. […] ICE Colorimetric Dose-Response (IC50) Assay

B1: ICE (interleukin-1β converting enzyme) (Homo sapiens) (protein)
chain 1: NPAMPTSSGSEGNVKLCSLEEAQRIWKQKSAEIYPIMDKSSRTRLALIICNEEFDSIPRRTGAEVDITGMTMLLQNLGYSVDVKKNLTASDMTTELEAFAHRPEHKTSDSTFLVFMSHGIREGICGKKHSEQVPDILQLNAIFNMLNTKNCPSLKDKPKVIIIQACRGDSPGVVWFKD
chain 2: AIKKAHIEKDFIAFCSSTPDNVSWRHPTMGSVFIGRLIEHMQEYACSCDVEEIFRKVRFSFEQPDGRAQMPTTERVTLTRCFYLFPGH
In the case of B1, the Michaelis constant (Km) was 15 µM.
